Test results reported in patent publication US7378234.

Biological target: soluble HLA-B*0702 (human)

Binder: SPGALVVGVI (modifications not checked) [Ipep 1838]
- % competition: 30%
